Source: US20170224620A1 (Pfizer, published 2017)
Bridges are numbered along the chain shown (N, C = ends). Primed or numbered codes have the meaning given here. Where no end group is shown, it is not given here. Side-chain parts run from the residue outwards. [ ]: non-standard residue; d: D form. Trp(5-OMe) = COc1ccc2[nH]cc(C[C@H](N)C(=O)O)c2c1; Phe(F5) = N[C@@H](Cc1c(F)c(F)c(F)c(F)c1F)C(=O)O; Dip = N[C@H](C(=O)O)C(c1ccccc1)c1ccccc1; Phe(4-NH2) = Nc1ccc(C[C@H](N)C(=O)O)cc1; Bta = N[C@@H](Cc1csc2ccccc12)C(=O)O; Igl = N[C@H](C(=O)O)C1Cc2ccccc2C1; hPhe = N[C@@H](CCc1ccccc1)C(=O)O; 3Pal = N[C@@H](Cc1cccnc1)C(=O)O; 2Thi = N[C@@H](Cc1cccs1)C(=O)O; DBCO′ = dibenzocyclooctyne; hCys = N[C@@H](CCS)C(=O)O; Orn = NCCC[C@H](N)C(=O)O; PEG4′ = not defined here; Pra = C#CC[C@H](N)C(=O)O; Dap = NC[C@H](N)C(=O)O

B1: P1-1 (peptide)
peptide: Ac-SECAPLAPDWLSCILGGK(DBCO′)-NH2
modifications: disulfide 3-13
notes: also called P1 alanine scan, AA position 4
B2: P1-4 (peptide)
peptide: Ac-SECFPLAADWLSCILGGK(DBCO′)-NH2
modifications: disulfide 3-13
notes: also called P1 alanine scan, AA position 8
B3: P1-6 (peptide)
peptide: Ac-SECFPLAPDALSCILGGK(DBCO′)-NH2
modifications: disulfide 3-13
notes: also called P1 alanine scan, AA position 10
B4: P1-3-1 (peptide)
peptide: Ac-AECFPAAPDWLSCILGGK(DBCO′)-NH2
modifications: disulfide 3-13
notes: also called alanine scan of flanking residues on P1-3, AA position 1
B5: P1-3-4 (peptide)
peptide: Ac-SECFPAAPDWLSCIAGGK(DBCO′)-NH2
modifications: disulfide 3-13
notes: also called alanine scan of flanking residues on P1-3, AA position 15
B6: P1-8 (peptide)
peptide: Ac-SECFPLAPDWLACILGGK(DBCO′)-NH2
modifications: disulfide 3-13
notes: also called P1 alanine scan, AA position 12
B7: P1-5 (peptide)
peptide: Ac-SECFPLAPAWLSCILGGK(DBCO′)-NH2
modifications: disulfide 3-13
notes: also called P1 alanine scan, AA position 9
B8: P1-7 (peptide)
peptide: Ac-SECFPLAPDWASCILGGK(DBCO′)-NH2
modifications: disulfide 3-13
notes: also called P1 alanine scan, AA position 11
B9: P1-2 (peptide)
peptide: Ac-SECFALAPDWLSCILGGK(DBCO′)-NH2
modifications: disulfide 3-13
notes: also called P1 alanine scan, AA position 5
B10: P2-53 (peptide)
peptide: DPCTWEVWGREXLQGGGG
modifications: free N-terminus; penicillamine (Pen) at 12, disulfide with Cys3; Par at 17; C-terminal amide
B11: P2-59 (peptide)
peptide: H-GDP[Dap]TWEVWGREDLQGG[Pra]G-NH2
modifications: lactam 4-13
B12: P2-52 (peptide)
peptide: H-DP[hCys]TWEVWGRE[hCys]LQGG[Pra]G-NH2
modifications: disulfide 3-12
SMILES: C#CC[C@H](NC(=O)CNC(=O)CNC(=O)[C@H](CCC(N)=O)NC(=O)[C@H](CC(C)C)NC(=O)[C@@H]1CCSSCC[C@H](NC(=O)[C@@H]2CCCN2C(=O)[C@@H](N)CC(=O)O)C(=O)N[C@@H]([C@@H](C)O)C(=O)N[C@@H](Cc2c[nH]c3ccccc23)C(=O)N[C@@H](CCC(=O)O)C(=O)N[C@@H](C(C)C)C(=O)N[C@@H](Cc2c[nH]c3ccccc23)C(=O)NCC(=O)N[C@@H](CCCNC(=N)N)C(=O)N[C@@H](CCC(=O)O)C(=O)N1)C(=O)NCC(N)=O
B13: P2-91 (peptide)
peptide: DPCTWEV[Bta]GRECLQ
modifications: disulfide 3-12; not fully specified (N-terminus)
notes: P2 backbone; also called P2 with 3-Benzothienyl Alanine at W8
B14: P2-65 (peptide)
peptide: H-GDPDTWEVWGRE[Orn]LQGG[Pra]G-NH2
modifications: lactam 4-13
SMILES: C#CC[C@H](NC(=O)CNC(=O)CNC(=O)[C@H](CCC(N)=O)NC(=O)[C@H](CC(C)C)NC(=O)[C@@H]1CCCNC(=O)C[C@H](NC(=O)[C@@H]2CCCN2C(=O)[C@H](CC(=O)O)NC(=O)CN)C(=O)N[C@@H]([C@@H](C)O)C(=O)N[C@@H](Cc2c[nH]c3ccccc23)C(=O)N[C@@H](CCC(=O)O)C(=O)N[C@@H](C(C)C)C(=O)N[C@@H](Cc2c[nH]c3ccccc23)C(=O)NCC(=O)N[C@@H](CCCNC(=N)N)C(=O)N[C@@H](CCC(=O)O)C(=O)N1)C(=O)NCC(N)=O
B15: P2-69 (peptide)
peptide: H-GDPETWEVWGRE[Dap]LQGG[Pra]G-NH2
modifications: lactam 4-13
B16: P2-68 (peptide)
peptide: H-GDPETWEVWGRE[Orn]LQGG[Pra]G-NH2
modifications: lactam 4-13
SMILES: C#CC[C@H](NC(=O)CNC(=O)CNC(=O)[C@H](CCC(N)=O)NC(=O)[C@H](CC(C)C)NC(=O)[C@@H]1CCCNC(=O)CC[C@H](NC(=O)[C@@H]2CCCN2C(=O)[C@H](CC(=O)O)NC(=O)CN)C(=O)N[C@@H]([C@@H](C)O)C(=O)N[C@@H](Cc2c[nH]c3ccccc23)C(=O)N[C@@H](CCC(=O)O)C(=O)N[C@@H](C(C)C)C(=O)N[C@@H](Cc2c[nH]c3ccccc23)C(=O)NCC(=O)N[C@@H](CCCNC(=N)N)C(=O)N[C@@H](CCC(=O)O)C(=O)N1)C(=O)NCC(N)=O
B17: P2-67 (peptide)
peptide: H-GGDPETWEVWGREKLQGG[Pra]G-NH2
modifications: lactam 5-14
B18: P2-55 (free-ligand series, GG-Par-G tail) (peptide)
peptide: DPXTWEVWGREXLQGGGG
modifications: free N-terminus; Pen at 3 and 12, disulfide; Par at 17; C-terminal amide
notes: also called PenPen analog
B19: P2-64 (peptide)
peptide: H-GDPDTWEVWGREKLQGG[Pra]G-NH2
modifications: lactam 4-13
B20: P2-92 (peptide)
peptide: DPCT[2Thi]EVWGRECLQ
modifications: disulfide 3-12; not fully specified (N-terminus)
notes: P2 backbone; also called P2 with 2-Thienyl Alanine at W5
B21: P2-43 (peptide)
peptide: DPCTWEVWXRECLQGGGG
modifications: free N-terminus; Sar at 9; Cys3-Cys12 disulfide; Par at 17; C-terminal amide
B22: P2-96 (peptide)
peptide: DPCT[Dip]EVWGRECLQ
modifications: disulfide 3-12; not fully specified (N-terminus)
notes: P2 backbone; also called P2 with Diphenylalanine at W5
B23: P2-74 (peptide)
peptide: DPCT[3Pal]EVWGRECLQ
modifications: disulfide 3-12; not fully specified (N-terminus)
notes: P2 backbone; also called P2 with 3-Pyridyl Alanine at W5
B24: P2-88 (peptide)
peptide: DPCT[Phe(F5)]EVWGRECLQ
modifications: disulfide 3-12; not fully specified (N-terminus)
notes: P2 backbone; also called P2 with Pentafluoro Phenylalanine at W5
B25: P2-60 (peptide)
peptide: H-GDPKTWEVWGREELQGG[Pra]G-NH2
modifications: lactam 4-13
B26: P2-94 (peptide)
peptide: DPCT[hPhe]EVWGRECLQ
modifications: disulfide 3-12; not fully specified (N-terminus)
notes: P2 backbone; also called P2 with Homophenylalanine at W5
B27: P2-58 (peptide)
peptide: H-GDP[Orn]TWEVWGREDLQGG[Pra]G-NH2
modifications: lactam 4-13
SMILES: C#CC[C@H](NC(=O)CNC(=O)CNC(=O)[C@H](CCC(N)=O)NC(=O)[C@H](CC(C)C)NC(=O)[C@@H]1CC(=O)NCCC[C@H](NC(=O)[C@@H]2CCCN2C(=O)[C@H](CC(=O)O)NC(=O)CN)C(=O)N[C@@H]([C@@H](C)O)C(=O)N[C@@H](Cc2c[nH]c3ccccc23)C(=O)N[C@@H](CCC(=O)O)C(=O)N[C@@H](C(C)C)C(=O)N[C@@H](Cc2c[nH]c3ccccc23)C(=O)NCC(=O)N[C@@H](CCCNC(=N)N)C(=O)N[C@@H](CCC(=O)O)C(=O)N1)C(=O)NCC(N)=O
B28: P2-54 (peptide)
peptide: DPXTWEVWGRECLQGGGG
modifications: free N-terminus; Pen at 3, disulfide with Cys12; Par at 17; C-terminal amide
B29: P2-86 (peptide)
peptide: DPCT[Phe(4-NH2)]EVWGRECLQ
modifications: disulfide 3-12; not fully specified (N-terminus)
notes: P2 backbone; also called P2 with 4-Amino Phenylalanine at W5
B30: P2-101 (peptide)
peptide: DPCTWEVXGRECLQ
modifications: not fully specified; 5-Methoxy Tryptophan at 8; Cys3-Cys12 disulfide
notes: P2 backbone; also called P2 with 5-Methoxy Tryptophan at W8
B31: P2-90 (peptide)
peptide: DPCTXEVWGRECLQ
modifications: not fully specified; 3-Benzothienyl Alanine at 5; Cys3-Cys12 disulfide
notes: P2 backbone; also called P2 with 3-Benzothienyl Alanine at W5
B32: P2-66 (peptide)
peptide: H-GDPDTWEVWGRE[Dap]LQGG[Pra]G-NH2
modifications: lactam 4-13
B33: 5% P2-2 nanoparticle (other)
peptide: Ac-DACTWEVWGRECLQGGK-NH2
modifications: disulfide 3-12; not fully specified (residue 17)
notes: also called P2-2 5% Ligand Density NP; alanine analog NP
B34: 5% P2-102 nanoparticle (other)
peptide: Ac-DPCT[Igl]EV[Trp(5-OMe)]GRECLQGGK([PEG4′-DBCO′])-NH2
modifications: disulfide 3-12; not fully specified
notes: also called aromatic analog NP
B35: 5% P2-55 nanoparticle (other)
peptide: DPXTWEVWGREXLQGGK
modifications: not fully specified; N-terminal acetyl; penicillamine at 3 and 12, disulfide; Lys17(PEG4-DBCO) clicked to azide PLA-PEG nanoparticle at 5%; C-terminal amide
notes: also called P2-55 5% Ligand Density NP; Pen analog NP

Target: T1, Fc tagged recombinant human EGFR (rhEGFR-Fc, R&D systems, Cat#344-ER-050) (human, UniProt P00533 25-645)
T1 construct: Bought protein; also called apo-EGFR; not shown: Fc tag
Test: EGF competition ELISA, free peptide
Protocol: An alanine scan was performed on the amino acids within the cyclic portion of the peptide structure to determine which amino acids were critical for binding. Each amino acid within the peptide was individually replaced with alanine. […] Subsequently, an alanine scan of the flanking amino acids on P₁₋₃ was performed.

Binder | Peptide Relative IC50 (normalized to P1) [ratio]
B1 | 1.9
B2 | 2.7
B3 | 7.1
B4 | 0.7
B5 | 3.2
B6 | 1
B7 | 4.4
B8 | 3.5
B9 | 11.5

Target: T1, Fc tagged recombinant human EGFR …
Test: SPR
Protocol: Surface plasmon resonance (SPR) binding studies were carried out on a Biacore T200 instrument (GE Healthcare). […] The contact time and resulting amount of rhEGFR-Fc capture was varied based on the nature of the analyte, namely whether it was a peptide or nanoparticle.
Peptide binding assays were carried out in 10 mM PBS buffer supplemented with 0.05% surfactant P20 and 5% DMSO by volume, at 25° C. Peptides were injected over the rhEGFR-Fc surface for 60 s, followed by dissociation (buffer injection) for 60 s and regeneration with a 10 s pulse of 3M MgCl₂. A fresh rhEGFR-Fc surface was generated for each concentration of each peptide tested. Peptide binding data was analyzed by fitting to a 1:1 Langmuir kinetic model to obtain the on-rate (kₐ), off-rate (kd) and/or equilibrium binding constant (KD) of the interaction.

Binder | Result (affinity relative to KD of P2) [ratio] | binding result | KD Relative to P2 [ratio]
B10 | 2.64 | – | –
B11 | – | no binding | –
B12 | 14 | – | –
B13 | – | – | 124
B14 | – | no binding | –
B15 | – | no binding | –
B16 | – | no binding | –
B17 | – | binds | –
B18 | 1.18 | – | –
B19 | – | no binding | –
B20 | – | – | 15.9
B21 | – | no binding | –
B22 | – | – | 8.9
B23 | – | – | 11.8
B24 | – | – | 8.5
B25 | – | no binding | –
B26 | – | – | 9.1
B27 | – | no binding | –
B28 | 4.78 | – | –
B29 | – | – | 9
B30 | – | – | 0.5
B31 | – | – | 1.6
B32 | – | no binding | –

Target: T2, EGF bound EGFR (rhEGFR-Fc with recombinant human EGF pre-injected in SPR or 50 nM EGF present in ELISA) (human, UniProt P00533 25-645; P01133 971-1023)
T2 construct: Complex of m1 and m5 as target; also called EGFR in the presence of EGF; With EGF; not shown: Fc tag
Test: P2 competition ELISA, 5% ligand density NP

Binder | IC50 [µg/mL] | Rel IC50 (against P2 NP) [ratio]
B33 | 3 | 0.7
B34 | 2.6 | 0.6
B35 | 3.4 | 0.79
